The supplement of paper PMC9170038

System: MS2 coat protein
Assay: apparent KD of MS2 coat protein; designed switch direction (-1 OFF switch, 1 ON switch): 1; higher = weaker reporter binding
Procedure, shortened: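 SNAP-549-labelled MS2 coat protein was titrated, doubling from 0.7 or 1.5 nM to 3 µM, over designed RNA switches transcribed on Illumina chips by stalled E. coli RNA polymerase. Runs were done without input, with 200 uM small-molecule ligand, or with an oligonucleotide input. Apparent KD is the per-design median over clusters of curve-fitted normalised fluorescence.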

[1] = input ligand: microRNA oligo, concentration not stated

Sequence | apparent KD of MS2 coat protein (input ligand: FMN 200 uM) [nM] | apparent KD of MS2 coat protein [1] [nM] | apparent KD of MS2 coat protein (input ligand: none) [nM] | apparent KD of MS2 coat protein (Eterna round: R95, input ligand: FMN 200 uM) [nM] | apparent KD of MS2 coat protein (Eterna round: R95, input ligand: microRNA oligo, concentration not stated) [nM] | apparent KD of MS2 coat protein (Eterna round: R95, input ligand: none) [nM]
GCCCGACUCACAGGAUAUGUACCGCCCGAAACAACAGAAGGGUGAGAUCCGGCAUGCACUGACAUGAGGAUCACCCAUGUCCUU [Gebege] (Eterna round: R96, puzzle: Same State NG 1) | 520 | 311 | 765 |  |  | 
AGCUAUUACGAAGGAUAUUGUGACAUGAGGAUCACCCAUGUUUACAUGAUUAAUUGUGAUCACGUCGAGAAGGUUGUACUAACA [SameState NG2 #32] (Eterna round: R96, puzzle: Same State NG 2) | 24.3 | 27.3 | 30.2 |  |  | 
CCAUAGUACAAUUUAGAUCUACAUGAGGAUCACCCAUGUACUGAGGAUAUCAGCUCGAAUAGAGCUGAGAAGGCAGAAUUAAUU [SSNG3/5-A1] (Eterna round: R96, puzzle: Same State NG 3) |  | 103 |  |  |  | 
AGCUAAUACGAAGGAUAUACUGACAUGAGGAUCACCCAUGUCUACAUGAUUUAUUGUGAUCACAUGUAGAAGGUCGUACUAACA [SameState NG2 #23] (Eterna round: R96, puzzle: Same State NG 2) | 26.8 | 62.3 | 79.8 |  |  | 
AAACGAAACACGGCCACAUGAGGAUCACCCAUGUCGAGUUCACAGGAUAUACCUACGUCCUCGUGGUAGAAGGGUGAGGCUGUG [Rienat] (Eterna round: R96, puzzle: Same State NG 3) | 750 | 39.5 | 215 |  |  | 
GGAGCCAAGGCAGGAUAUUCAUAUUAAAACAUGAGGAUCACCCAUGUAAAGGCCAGAAGGCCGUGGGAGAAGGGCCAUGGCUCG [Xeonanis - 13 mod15] (Eterna round: R96, puzzle: Same State NG 2) | 38.5 | 51.7 | 116 |  |  | 
CCGGUGAUAGGGCAGGAUAUGACUGUCGUCACAUGAGGAUCACCCAUGUCCCGGCAAUGCCACCGUUAGAAGGGCCCUAUCCCGA [Teuszaesti] (puzzle: Same State 2) |  |  |  | 14.8 | 12.1 | 15
AGCUAGUACCGAGGAUAUACAUACAUGAGGAUCACCCAUGUAUACAUGAACAAUUGAGACUACAUGUAGAAGGCGGUACUAGCA [JL SSNG2 1.19] (Eterna round: R96, puzzle: Same State NG 2) |  | 37.4 |  |  |  | 
ACAUGAGACUCAGGAUAUGUUGUACCUACAUGUGACAUGAGGAUCACCCAUGUGGUAAGUAUGAUACAGAAGGGAGAGAUAUGU [Equivalance 65 - Jieux - Same State NG 2] (Eterna round: R96, puzzle: Same State NG 2) | 20.5 | 22.1 | 43.6 |  |  | 
GCUCGACGUGUUGUCUACAUGAGGAUCACCCAUGUAGGUGCGGAGGAUAUCUACGUGUUUUAUGUAGAGAAGGUCGUGUCGAGC [SameState NG3 #88] (Eterna round: R96, puzzle: Same State NG 3) | 15.1 | 15.5 | 17.2 |  |  | 
AAUCCUGUCACAGGAUAUCCAAGGUAAACCCUCGGAGAAGGGUGAUAGUCUAACAAACACACACAUGAGGAUCACCCAUGUUAA [Usxeus] (Eterna round: R96, puzzle: Same State NG 1) | 52.4 | 40.1 | 83.6 |  |  | 
UGGUACAUGGGAGGAUAUCAUGCAAACAUGAGGAUCACCCAUGUAGCCAUGGAGACAUGGGUAUAUGAGAAGGCCCAUGUACCU [JL SSNG1 3.52] (Eterna round: R96, puzzle: Same State NG 2) | 317 | 51.9 | 88.3 |  |  | 
